Tests used:
[1] = target: T1, Recombinant Human DLL4 (R&D Systems Cat#1506-D4/CF) (human, UniProt Q9NR61 27-529); assay: ECL Multispot (MSD), antigen spotted; Fab 5 (µM); blank 102; first of duplicates
T1 construct: Bought recombinant protein; also called delta-like protein 4; rHuman DLL4

[2] = target: T2, rHuman ErbB2/Fc Chimera, CF (R&D Systems Cat#1129-ER) (human, UniProt P04626 23-652); assay: as above
T2 construct: Bought recombinant protein; Fc part of the bought chimera not given

[3] = target: T3, rHuman EGF R/Fc Chimera, CF (R&D Systems Cat#344-ER) (human, UniProt P00533 25-645); assay: as above
T3 construct: Bought recombinant protein; Fc part of the bought chimera not given

[4] = target: T4, rHuman HGF R/c-MET/Fc Chimera, CF (R&D Systems Cat#358-MT/CF) (human, UniProt P08581 25-932); assay: as above
T4 construct: Bought recombinant protein; also called HGF R/Fc; Fc part of the bought chimera not given

[5] = target: T5, rHuman IGF-1 sR, CF (R&D Systems Cat#391-GR) (human, UniProt P08069 31-932); assay: as above
T5 construct: Bought recombinant soluble receptor; also called insulin-like growth factor-1 soluble receptor

[6] = target: T6, rHuman P-Cadherin/Fc Chimera, CF (R&D Systems Cat#861-PC) (human, UniProt P22223 108-654); assay: as above
T6 construct: Bought recombinant protein; Fc part of the bought chimera not given

[7] = target: T1, Recombinant Human DLL4 (R&D Systems …); assay: ECL Multispot (MSD), antigen spotted; Fab 50 (µM); blank 332; first of duplicates
[8] = target: T2, rHuman ErbB2/Fc Chimera, CF (R&D …); assay: as above
[9] = target: T3, rHuman EGF R/Fc Chimera, CF (R&D …); assay: as above
[10] = target: T4, rHuman HGF R/c-MET/Fc Chimera, CF (R&D …); assay: as above
[11] = target: T5, rHuman IGF-1 sR, CF (R&D Systems …); assay: as above
[12] = target: T6, rHuman P-Cadherin/Fc Chimera, CF (R&D …); assay: as above
[13] = target: T1, Recombinant Human DLL4 (R&D Systems …); assay: ECL Multispot (MSD), antigen spotted; Fab 0.50 (µM); blank 95; first of duplicates
[14] = target: T2, rHuman ErbB2/Fc Chimera, CF (R&D …); assay: as above
[15] = target: T3, rHuman EGF R/Fc Chimera, CF (R&D …); assay: as above
[16] = target: T4, rHuman HGF R/c-MET/Fc Chimera, CF (R&D …); assay: as above
[17] = target: T5, rHuman IGF-1 sR, CF (R&D Systems …); assay: as above
[18] = target: T6, rHuman P-Cadherin/Fc Chimera, CF (R&D …); assay: as above
[19] = target: T1, Recombinant Human DLL4 (R&D Systems …); assay: ECL Multispot (MSD), antigen spotted; Fab 500 (µM); blank 570; first of duplicates
[20] = target: T2, rHuman ErbB2/Fc Chimera, CF (R&D …); assay: as above
[21] = target: T3, rHuman EGF R/Fc Chimera, CF (R&D …); assay: as above
[22] = target: T4, rHuman HGF R/c-MET/Fc Chimera, CF (R&D …); assay: as above
[23] = target: T5, rHuman IGF-1 sR, CF (R&D Systems …); assay: as above
[24] = target: T6, rHuman P-Cadherin/Fc Chimera, CF (R&D …); assay: as above

T4 sequence (P08581 25-932, change not shown): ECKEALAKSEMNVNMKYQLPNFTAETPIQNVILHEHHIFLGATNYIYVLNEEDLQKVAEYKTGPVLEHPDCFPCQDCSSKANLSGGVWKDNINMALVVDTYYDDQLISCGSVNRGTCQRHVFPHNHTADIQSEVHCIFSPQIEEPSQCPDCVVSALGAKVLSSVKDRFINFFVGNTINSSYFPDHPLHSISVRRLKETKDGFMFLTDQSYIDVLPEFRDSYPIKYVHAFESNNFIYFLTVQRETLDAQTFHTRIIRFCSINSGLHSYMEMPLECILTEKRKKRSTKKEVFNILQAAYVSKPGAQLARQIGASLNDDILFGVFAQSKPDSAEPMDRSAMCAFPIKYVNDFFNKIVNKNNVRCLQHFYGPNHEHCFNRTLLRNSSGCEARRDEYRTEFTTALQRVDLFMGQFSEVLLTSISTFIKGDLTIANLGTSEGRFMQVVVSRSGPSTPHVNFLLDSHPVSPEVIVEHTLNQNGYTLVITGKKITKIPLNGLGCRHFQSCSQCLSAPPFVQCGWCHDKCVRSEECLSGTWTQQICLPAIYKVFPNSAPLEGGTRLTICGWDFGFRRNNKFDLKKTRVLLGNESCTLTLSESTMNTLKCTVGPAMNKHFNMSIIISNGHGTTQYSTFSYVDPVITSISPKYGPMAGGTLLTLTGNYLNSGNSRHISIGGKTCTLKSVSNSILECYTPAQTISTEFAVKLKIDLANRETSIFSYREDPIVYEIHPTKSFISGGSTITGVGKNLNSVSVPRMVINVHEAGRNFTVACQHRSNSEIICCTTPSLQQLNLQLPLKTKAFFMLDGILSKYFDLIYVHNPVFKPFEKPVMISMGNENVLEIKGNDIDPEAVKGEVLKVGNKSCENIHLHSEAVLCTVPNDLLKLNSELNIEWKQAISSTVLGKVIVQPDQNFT

- ECL signal [1]: 76300
- ECL signal [2]: 225
- ECL signal [3]: 229
- ECL signal [4]: 208
- ECL signal [5]: 232
- ECL signal [6]: 290
- ECL signal [7]: 79400
- ECL signal [8]: 394
- ECL signal [9]: 452
- ECL signal [10]: 368
- ECL signal [11]: 283
- ECL signal [12]: 349
- ECL signal [13]: 8320
- ECL signal [14]: 130
- ECL signal [15]: 137
- ECL signal [16]: 104
- ECL signal [17]: 94
- ECL signal [18]: 106
- ECL signal [19]: 26900
- ECL signal [20]: 908
- ECL signal [21]: 2410
- ECL signal [22]: 945
- ECL signal [23]: 722
- ECL signal [24]: 1010
B1: Fab VH1-46_IGHD6-6*01_IGHJ1*01 S102A/S103P/S104F/H111F (APFF) & L6_IGKJ1*01 (Fab, V domains shown)
VH: QVQLVQSGAEVKKPGASVKVSCKASGYTFTSYYMHWVRQAPGQGLEWMGIINPSGGSTSYAQKFQGRVTMTRDTSTSTVYMELSSLRSEDTAVYYCAREEYAPFSAEYFQFWGQGTLVTVSS
VL: not shown
notes: Tested as a Fab made in E. coli: VH cloned in Plasmid A (CH1 constant region, His6 and Flag tags), VL in Plasmid C (kappa constant region); also called H:APFF & L:wt

— US20120316071A1 (published 2012)
